The values below come from US20260001928A1 (CORTERIA PHARMACEUTICALS, priority 2022, published 2026).

In one test the target is T1, CRF1R receptor (UniProt P34998 24-415, limits assumed).
T1 sequence (looked up): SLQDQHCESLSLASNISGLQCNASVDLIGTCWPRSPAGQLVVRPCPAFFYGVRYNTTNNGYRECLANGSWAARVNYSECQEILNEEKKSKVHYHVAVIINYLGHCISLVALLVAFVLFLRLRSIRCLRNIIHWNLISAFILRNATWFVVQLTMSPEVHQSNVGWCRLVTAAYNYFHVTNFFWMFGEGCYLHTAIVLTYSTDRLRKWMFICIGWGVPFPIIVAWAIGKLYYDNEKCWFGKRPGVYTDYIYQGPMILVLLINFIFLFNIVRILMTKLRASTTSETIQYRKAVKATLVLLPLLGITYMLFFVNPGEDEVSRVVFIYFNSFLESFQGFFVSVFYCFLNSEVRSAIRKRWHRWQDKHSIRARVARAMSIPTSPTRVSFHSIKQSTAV
Nature of the test: cell-based or functional assay.

The target of test [1] is human corticotropin-releasing factor 2a (CRF2a receptor) (human), Q13324. Nature of the test: cell-based or functional assay.

*1 amine or outer side, *2 acyl side, *3 side chain or, on linkers, in order; H or OH if unused. Where no end group is shown, it is not given here. Side-chain parts run from the residue outwards. [ ]: non-standard residue; d: D form. The star is where a group is joined. C18 diacid = O=C(O)CCCCCCCCCCCCCCCCC(=O)*; C16 diacid = O=C(O)CCCCCCCCCCCCCCC(=O)*; γGlu = O=C(O)[C@H](CCC(=O)[*:2])N[*:1]; NMeI = CC[C@H](C)[C@H](NC)C(=O)O; Api = NC1(C(=O)O)CCNCC1; AEEA = NCCOCCOCC(=O)O

human corticotropin-releasing factor 2a (CRF2a receptor) (human), Q13324, sequence (Q13324 20-411): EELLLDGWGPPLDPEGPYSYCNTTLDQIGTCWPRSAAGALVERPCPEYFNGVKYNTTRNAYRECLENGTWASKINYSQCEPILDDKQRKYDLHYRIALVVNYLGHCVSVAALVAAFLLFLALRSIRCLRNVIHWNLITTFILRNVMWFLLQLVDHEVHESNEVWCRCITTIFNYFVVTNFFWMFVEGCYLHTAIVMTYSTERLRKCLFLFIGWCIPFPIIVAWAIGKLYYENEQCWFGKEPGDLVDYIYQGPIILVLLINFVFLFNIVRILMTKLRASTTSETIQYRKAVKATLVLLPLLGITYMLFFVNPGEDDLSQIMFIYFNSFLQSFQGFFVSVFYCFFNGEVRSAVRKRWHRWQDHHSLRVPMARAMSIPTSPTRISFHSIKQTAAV

B1: SEQ ID NO 116 (peptide)
peptide: [NMeI]VLSLD[dV]PIKLK([AEEA-AEEA-γGlu-C18 diacid])KILLEQEKQKKQREQAETNEQILAQV-NH2
modifications: N-terminus assumed
SMILES: CC[C@H](C)[C@H](NC)C(=O)N[C@H](C(=O)N[C@@H](CC(C)C)C(=O)N[C@@H](CO)C(=O)N[C@@H](CC(C)C)C(=O)N[C@@H](CC(=O)O)C(=O)N[C@@H](C(=O)N1CCC[C@H]1C(=O)N[C@H](C(=O)N[C@@H](CCCCN)C(=O)N[C@@H](CC(C)C)C(=O)N[C@@H](CCCCNC(=O)COCCOCCNC(=O)COCCOCCNC(=O)CC[C@H](NC(=O)CCCCCCCCCCCCCCCCC(=O)O)C(=O)O)C(=O)N[C@@H](CCCCN)C(=O)N[C@H](C(=O)N[C@@H](CC(C)C)C(=O)N[C@@H](CC(C)C)C(=O)N[C@@H](CCC(=O)O)C(=O)N[C@@H](CCC(N)=O)C(=O)N[C@@H](CCC(=O)O)C(=O)N[C@@H](CCCCN)C(=O)N[C@@H](CCC(N)=O)C(=O)N[C@@H](CCCCN)C(=O)N[C@@H](CCCCN)C(=O)N[C@@H](CCC(N)=O)C(=O)N[C@@H](CCCNC(=N)N)C(=O)N[C@@H](CCC(=O)O)C(=O)N[C@@H](CCC(N)=O)C(=O)N[C@@H](C)C(=O)N[C@@H](CCC(=O)O)C(=O)N[C@H](C(=O)N[C@@H](CC(N)=O)C(=O)N[C@@H](CCC(=O)O)C(=O)N[C@@H](CCC(N)=O)C(=O)N[C@H](C(=O)N[C@@H](CC(C)C)C(=O)N[C@@H](C)C(=O)N[C@@H](CCC(N)=O)C(=O)N[C@H](C(N)=O)C(C)C)[C@@H](C)CC)[C@@H](C)O)[C@@H](C)CC)[C@@H](C)CC)C(C)C)C(C)C
With B1, the “Emax (% I)” value in the test with CRF1R receptor was determined as 0%. Moreover, in test [1], the EC50 [nM] (cAMP) is 0.37 nM.

B2: SEQ ID NO 147 (peptide)
peptide: H-IVLSLD[dV]PIKLK([γGlu-γGlu-C16 diacid])QILLKQERQKKQREQAEKNKQILEQV-NH2
SMILES: CC[C@H](C)[C@H](N)C(=O)N[C@H](C(=O)N[C@@H](CC(C)C)C(=O)N[C@@H](CO)C(=O)N[C@@H](CC(C)C)C(=O)N[C@@H](CC(=O)O)C(=O)N[C@@H](C(=O)N1CCC[C@H]1C(=O)N[C@H](C(=O)N[C@@H](CCCCN)C(=O)N[C@@H](CC(C)C)C(=O)N[C@@H](CCCCNC(=O)CC[C@H](NC(=O)CC[C@H](NC(=O)CCCCCCCCCCCCCCC(=O)O)C(=O)O)C(=O)O)C(=O)N[C@@H](CCC(N)=O)C(=O)N[C@H](C(=O)N[C@@H](CC(C)C)C(=O)N[C@@H](CC(C)C)C(=O)N[C@@H](CCCCN)C(=O)N[C@@H](CCC(N)=O)C(=O)N[C@@H](CCC(=O)O)C(=O)N[C@@H](CCCNC(=N)N)C(=O)N[C@@H](CCC(N)=O)C(=O)N[C@@H](CCCCN)C(=O)N[C@@H](CCCCN)C(=O)N[C@@H](CCC(N)=O)C(=O)N[C@@H](CCCNC(=N)N)C(=O)N[C@@H](CCC(=O)O)C(=O)N[C@@H](CCC(N)=O)C(=O)N[C@@H](C)C(=O)N[C@@H](CCC(=O)O)C(=O)N[C@@H](CCCCN)C(=O)N[C@@H](CC(N)=O)C(=O)N[C@@H](CCCCN)C(=O)N[C@@H](CCC(N)=O)C(=O)N[C@H](C(=O)N[C@@H](CC(C)C)C(=O)N[C@@H](CCC(=O)O)C(=O)N[C@@H](CCC(N)=O)C(=O)N[C@H](C(N)=O)C(C)C)[C@@H](C)CC)[C@@H](C)CC)[C@@H](C)CC)C(C)C)C(C)C
In test [1], B2 came in with an EC50 [nM] (cAMP) of 0.18 nM.

B3: SEQ ID NO 34 (peptide)
peptide: H-VLSLD[dV]PIKLK([γGlu-C16 diacid])KILLEQEKQKKQREQAETNKQILAQV-NH2
SMILES: CC[C@H](C)[C@H](NC(=O)[C@H](CCC(N)=O)NC(=O)[C@H](CCCCN)NC(=O)[C@H](CC(N)=O)NC(=O)[C@@H](NC(=O)[C@H](CCC(=O)O)NC(=O)[C@H](C)NC(=O)[C@H](CCC(N)=O)NC(=O)[C@H](CCC(=O)O)NC(=O)[C@H](CCCNC(=N)N)NC(=O)[C@H](CCC(N)=O)NC(=O)[C@H](CCCCN)NC(=O)[C@H](CCCCN)NC(=O)[C@H](CCC(N)=O)NC(=O)[C@H](CCCCN)NC(=O)[C@H](CCC(=O)O)NC(=O)[C@H](CCC(N)=O)NC(=O)[C@H](CCC(=O)O)NC(=O)[C@H](CC(C)C)NC(=O)[C@H](CC(C)C)NC(=O)[C@@H](NC(=O)[C@H](CCCCN)NC(=O)[C@H](CCCCNC(=O)CC[C@H](NC(=O)CCCCCCCCCCCCCCC(=O)O)C(=O)O)NC(=O)[C@H](CC(C)C)NC(=O)[C@H](CCCCN)NC(=O)[C@@H](NC(=O)[C@@H]1CCCN1C(=O)[C@H](NC(=O)[C@H](CC(=O)O)NC(=O)[C@H](CC(C)C)NC(=O)[C@H](CO)NC(=O)[C@H](CC(C)C)NC(=O)[C@@H](N)C(C)C)C(C)C)[C@@H](C)CC)[C@@H](C)CC)[C@@H](C)O)C(=O)N[C@@H](CC(C)C)C(=O)N[C@@H](C)C(=O)N[C@@H](CCC(N)=O)C(=O)N[C@H](C(N)=O)C(C)C
With B3, the EC50 [nM] (cAMP) in test [1] was 1.61 nM.

B4: SEQ ID NO 71 (peptide)
peptide: [NMeI]VLSLD[dV]PIKLK([γGlu-C16 diacid])KILLEQEKQKKQREQAETNEQILAQV-NH2
modifications: N-terminus assumed
SMILES: CC[C@H](C)[C@H](NC)C(=O)N[C@H](C(=O)N[C@@H](CC(C)C)C(=O)N[C@@H](CO)C(=O)N[C@@H](CC(C)C)C(=O)N[C@@H](CC(=O)O)C(=O)N[C@@H](C(=O)N1CCC[C@H]1C(=O)N[C@H](C(=O)N[C@@H](CCCCN)C(=O)N[C@@H](CC(C)C)C(=O)N[C@@H](CCCCNC(=O)CC[C@H](NC(=O)CCCCCCCCCCCCCCC(=O)O)C(=O)O)C(=O)N[C@@H](CCCCN)C(=O)N[C@H](C(=O)N[C@@H](CC(C)C)C(=O)N[C@@H](CC(C)C)C(=O)N[C@@H](CCC(=O)O)C(=O)N[C@@H](CCC(N)=O)C(=O)N[C@@H](CCC(=O)O)C(=O)N[C@@H](CCCCN)C(=O)N[C@@H](CCC(N)=O)C(=O)N[C@@H](CCCCN)C(=O)N[C@@H](CCCCN)C(=O)N[C@@H](CCC(N)=O)C(=O)N[C@@H](CCCNC(=N)N)C(=O)N[C@@H](CCC(=O)O)C(=O)N[C@@H](CCC(N)=O)C(=O)N[C@@H](C)C(=O)N[C@@H](CCC(=O)O)C(=O)N[C@H](C(=O)N[C@@H](CC(N)=O)C(=O)N[C@@H](CCC(=O)O)C(=O)N[C@@H](CCC(N)=O)C(=O)N[C@H](C(=O)N[C@@H](CC(C)C)C(=O)N[C@@H](C)C(=O)N[C@@H](CCC(N)=O)C(=O)N[C@H](C(N)=O)C(C)C)[C@@H](C)CC)[C@@H](C)O)[C@@H](C)CC)[C@@H](C)CC)C(C)C)C(C)C
For B4, in the test with CRF1R receptor, the “Emax (% I)” value was -4%. This molecule registered an EC50 [nM] (cAMP) in test [1] of 0.21 nM.

B5: SEQ ID NO 149 (peptide)
peptide: IVLSLDVPIKLK([AEEA-AEEA-γGlu-C18 diacid])KILLEQEKQKKQREQAETNKQILAQV-NH2
modifications: not fully specified (residue 7); printed as IVLSLDVPIKLK*KILLEQEKQKKQREQAETNKQILAQV-NH2
B5: in the test with CRF1R receptor, the “EC50” value is more than 250 nM and the “Emax (% I)” value was found to be 4%. Besides, the EC50 [nM] (cAMP) in test [1] was determined as 0.44 nM.

B6: SEQ ID NO 151 (peptide)
peptide: H-IVLSLD[dV]PIKLK([γGlu-C16 diacid])QILLKQERQKKQREQAEKNKQILEQV-NH2
SMILES: CC[C@H](C)[C@H](N)C(=O)N[C@H](C(=O)N[C@@H](CC(C)C)C(=O)N[C@@H](CO)C(=O)N[C@@H](CC(C)C)C(=O)N[C@@H](CC(=O)O)C(=O)N[C@@H](C(=O)N1CCC[C@H]1C(=O)N[C@H](C(=O)N[C@@H](CCCCN)C(=O)N[C@@H](CC(C)C)C(=O)N[C@@H](CCCCNC(=O)CC[C@H](NC(=O)CCCCCCCCCCCCCCC(=O)O)C(=O)O)C(=O)N[C@@H](CCC(N)=O)C(=O)N[C@H](C(=O)N[C@@H](CC(C)C)C(=O)N[C@@H](CC(C)C)C(=O)N[C@@H](CCCCN)C(=O)N[C@@H](CCC(N)=O)C(=O)N[C@@H](CCC(=O)O)C(=O)N[C@@H](CCCNC(=N)N)C(=O)N[C@@H](CCC(N)=O)C(=O)N[C@@H](CCCCN)C(=O)N[C@@H](CCCCN)C(=O)N[C@@H](CCC(N)=O)C(=O)N[C@@H](CCCNC(=N)N)C(=O)N[C@@H](CCC(=O)O)C(=O)N[C@@H](CCC(N)=O)C(=O)N[C@@H](C)C(=O)N[C@@H](CCC(=O)O)C(=O)N[C@@H](CCCCN)C(=O)N[C@@H](CC(N)=O)C(=O)N[C@@H](CCCCN)C(=O)N[C@@H](CCC(N)=O)C(=O)N[C@H](C(=O)N[C@@H](CC(C)C)C(=O)N[C@@H](CCC(=O)O)C(=O)N[C@@H](CCC(N)=O)C(=O)N[C@H](C(N)=O)C(C)C)[C@@H](C)CC)[C@@H](C)CC)[C@@H](C)CC)C(C)C)C(C)C
B6 registered an EC50 [nM] (cAMP) in test [1] of 0.12 nM.

B7: SEQ ID NO 72 (peptide)
peptide: [NMeI]VLSLD[dV]PIKLK([γGlu-C16 diacid])KILLEQEKQKKQREQAETN[Api]QILAQV-NH2
modifications: N-terminus assumed
SMILES: CC[C@H](C)[C@H](NC)C(=O)N[C@H](C(=O)N[C@@H](CC(C)C)C(=O)N[C@@H](CO)C(=O)N[C@@H](CC(C)C)C(=O)N[C@@H](CC(=O)O)C(=O)N[C@@H](C(=O)N1CCC[C@H]1C(=O)N[C@H](C(=O)N[C@@H](CCCCN)C(=O)N[C@@H](CC(C)C)C(=O)N[C@@H](CCCCNC(=O)CC[C@H](NC(=O)CCCCCCCCCCCCCCC(=O)O)C(=O)O)C(=O)N[C@@H](CCCCN)C(=O)N[C@H](C(=O)N[C@@H](CC(C)C)C(=O)N[C@@H](CC(C)C)C(=O)N[C@@H](CCC(=O)O)C(=O)N[C@@H](CCC(N)=O)C(=O)N[C@@H](CCC(=O)O)C(=O)N[C@@H](CCCCN)C(=O)N[C@@H](CCC(N)=O)C(=O)N[C@@H](CCCCN)C(=O)N[C@@H](CCCCN)C(=O)N[C@@H](CCC(N)=O)C(=O)N[C@@H](CCCNC(=N)N)C(=O)N[C@@H](CCC(=O)O)C(=O)N[C@@H](CCC(N)=O)C(=O)N[C@@H](C)C(=O)N[C@@H](CCC(=O)O)C(=O)N[C@H](C(=O)N[C@@H](CC(N)=O)C(=O)NC1(C(=O)N[C@@H](CCC(N)=O)C(=O)N[C@H](C(=O)N[C@@H](CC(C)C)C(=O)N[C@@H](C)C(=O)N[C@@H](CCC(N)=O)C(=O)N[C@H](C(N)=O)C(C)C)[C@@H](C)CC)CCNCC1)[C@@H](C)O)[C@@H](C)CC)[C@@H](C)CC)C(C)C)C(C)C
On to B7, for which the “Emax (% I)” value in the test with CRF1R receptor turned out to be 18%. For the same molecule, in test [1], the EC50 [nM] (cAMP) came to 0.14 nM.

The EC50 is the concentration that produces a half-maximal response. A lower EC50 goes with an effect from little substance.
